Assay results reported in patent US20210030857A1 (NGM BIOPHARMACEUTICALS, published 2021).
Where a chain is given by its changes, count along the chain named.

T1: human beta klotho protein (soluble, used in Biacore) (human, UniProt Q86Z14 53-997, limits assumed)
T1 construct: also called HuKLB; huKLB
T1 sequence: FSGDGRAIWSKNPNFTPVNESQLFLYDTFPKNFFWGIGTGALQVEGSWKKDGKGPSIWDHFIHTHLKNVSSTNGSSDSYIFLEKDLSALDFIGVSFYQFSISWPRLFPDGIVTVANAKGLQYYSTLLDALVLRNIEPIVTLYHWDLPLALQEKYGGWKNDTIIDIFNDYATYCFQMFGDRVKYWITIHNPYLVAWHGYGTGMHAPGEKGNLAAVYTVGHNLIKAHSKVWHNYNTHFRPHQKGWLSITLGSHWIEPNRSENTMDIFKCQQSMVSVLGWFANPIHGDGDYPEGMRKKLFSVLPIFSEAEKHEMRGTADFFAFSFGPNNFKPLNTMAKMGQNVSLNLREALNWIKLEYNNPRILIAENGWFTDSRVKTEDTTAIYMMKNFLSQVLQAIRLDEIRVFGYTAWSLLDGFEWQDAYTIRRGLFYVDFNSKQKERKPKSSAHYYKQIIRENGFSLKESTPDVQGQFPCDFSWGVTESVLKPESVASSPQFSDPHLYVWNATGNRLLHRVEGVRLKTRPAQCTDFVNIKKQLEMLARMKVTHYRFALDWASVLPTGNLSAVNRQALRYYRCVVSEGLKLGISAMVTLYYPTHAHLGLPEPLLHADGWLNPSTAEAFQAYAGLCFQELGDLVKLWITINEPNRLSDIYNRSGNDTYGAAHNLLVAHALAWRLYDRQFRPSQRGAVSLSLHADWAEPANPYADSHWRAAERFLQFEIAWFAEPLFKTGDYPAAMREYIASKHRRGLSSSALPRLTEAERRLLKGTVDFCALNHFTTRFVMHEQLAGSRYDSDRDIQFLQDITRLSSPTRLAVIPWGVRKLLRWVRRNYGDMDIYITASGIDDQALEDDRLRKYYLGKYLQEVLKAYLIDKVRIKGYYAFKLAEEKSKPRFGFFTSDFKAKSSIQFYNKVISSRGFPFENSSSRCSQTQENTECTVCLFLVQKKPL

T2: human beta klotho expressed on cells (human, UniProt Q86Z14 1-1044)
T2 construct: also called HuKLB overexpressing cells; Human KLB
T2 sequence: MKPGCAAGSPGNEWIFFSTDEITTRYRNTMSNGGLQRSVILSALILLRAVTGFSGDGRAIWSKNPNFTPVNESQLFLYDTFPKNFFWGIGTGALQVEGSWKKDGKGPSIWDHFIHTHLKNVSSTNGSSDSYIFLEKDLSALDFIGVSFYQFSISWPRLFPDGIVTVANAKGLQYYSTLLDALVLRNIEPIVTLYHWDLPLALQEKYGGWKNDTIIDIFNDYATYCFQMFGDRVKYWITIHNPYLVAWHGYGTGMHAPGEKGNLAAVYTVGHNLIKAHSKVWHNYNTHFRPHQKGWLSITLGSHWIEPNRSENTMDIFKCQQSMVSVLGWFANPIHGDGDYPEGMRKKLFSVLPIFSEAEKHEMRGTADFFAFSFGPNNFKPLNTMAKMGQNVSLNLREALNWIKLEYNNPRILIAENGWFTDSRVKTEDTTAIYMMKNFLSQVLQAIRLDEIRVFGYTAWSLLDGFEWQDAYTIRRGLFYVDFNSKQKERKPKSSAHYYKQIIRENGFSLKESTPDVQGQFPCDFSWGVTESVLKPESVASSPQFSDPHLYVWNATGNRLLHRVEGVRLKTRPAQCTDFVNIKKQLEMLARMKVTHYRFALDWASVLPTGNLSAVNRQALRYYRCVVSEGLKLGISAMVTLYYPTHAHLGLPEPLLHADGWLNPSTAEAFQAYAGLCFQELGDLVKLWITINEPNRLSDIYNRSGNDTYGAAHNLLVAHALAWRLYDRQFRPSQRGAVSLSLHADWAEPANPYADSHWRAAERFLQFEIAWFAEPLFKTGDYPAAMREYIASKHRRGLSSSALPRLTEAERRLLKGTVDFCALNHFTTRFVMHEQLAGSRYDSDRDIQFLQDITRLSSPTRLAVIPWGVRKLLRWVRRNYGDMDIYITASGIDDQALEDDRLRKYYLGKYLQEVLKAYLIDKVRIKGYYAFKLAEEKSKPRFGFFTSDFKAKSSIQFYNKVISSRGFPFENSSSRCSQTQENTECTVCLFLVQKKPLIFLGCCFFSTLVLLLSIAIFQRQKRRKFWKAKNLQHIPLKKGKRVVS

B1: antibody 5F7 (antibody, V domains shown)
VH: QVQPQESGPELVKPGALVKISCKASGYTFTRYDINWVKQRPGQGLEWIGWIYPGDISTKYNEKFKGKATLTADKSSSTAYMQLNSLTSENSAVYFCARSDYYGSRSFVYWGQGTLVTVSA
VL: DIVLTQSPASLAVSLGQRATISCRASKSVSTSGYSYMHWYQQKPGQPPKLLIYLASNLESGVPARFSGSGSGTDFTLNIHPVEEEDAATYYCQHSRELPYTFGGGTKVEIK
notes: Murine monoclonal antibody
B2: antibody 3L3 (antibody, V domains shown)
VH: B1 VH with A16T, R31S, I56G, T58P, N61D, N84S
VL: B1 VL with M37V, S69R, R96G, V108L
notes: Murine monoclonal antibody
B3: antibody 5C23 (antibody, V domains shown)
VH: B1 VH with Q39K, I56G, K65E, N84S
VL: B1 VL with A9D, A12T, V108L
notes: Murine monoclonal antibody
B4: antibody 4P5 (antibody, V domains shown)
VH: B1 VH with P4L, E6Q, Q39K, I56D, N84S
VL: B1 VL with V3L, S69R, Q93H, R96G, V108L
notes: Murine monoclonal antibody
B5: antibody 2L12 (antibody, V domains shown)
VH: B1 VH with P4L, E6Q, Q39K, I56D, N84S
VL: B1 VL with A12P, M37L, R96G, V108L
notes: Murine monoclonal antibody
B6: antibody 1D19 (antibody, V domains shown)
VH: B1 VH with V37M, I56S, Y60F, K63N, G66D, N84S, A92T, V108T
VL: B1 VL with V108L
notes: Murine monoclonal antibody
B7: antibody 3N20 (antibody, V domains shown)
VH: QVQLQESGAELARPGASVKLSCKVSGYIFTNYGISWVKQRTGQGLEWIGEIYPRSGNTYYNEKFKGKATLTADMSSSTAYMDLRSLTSEDSAVYFCARHWDGVLDYFDYWGQGTSLTVSS
VL: DIVMTQSPSSLSVSAGEKVTMSCKSSQSLLNSGNQKNYLAWYQQKPGQPPKLLIYGASTRESGVPDRFTGSGSGTDFTLTISSVQAEDLAVYYCLNDHSYPFTFGAGTKLELK
notes: Murine monoclonal antibody
B8: antibody 1C17 (antibody, V domains shown)
VH: QVQLQESGPGLVKPSQSLSLTCSVTGYSITSGYYWNWIRQFPGNKLEWMGYINYDGNSNYTPSLKNRISITRDTSKNQFFLKLNSVTPEDTATYYCARKGAYYSNYDSFDVWGTGTTVTVSS
VL: DIKMTQSPSSMYASLGERVTITCKASQDINSYLSWVQQKPGKSPKTLIYRANRLVDGVPSRFSGSGSGQDYSLTISSLEYEDMGIYYCLQYDEFPFTFGSGTKLEIK
notes: Murine monoclonal antibody
B9: antibody 5H23 (antibody, V domains shown)
VH: B1 VH with P4L, E6Q, R31S, I56G, S77R, N84S, V108A
VL: B1 VL with S35V, Y40N, N57Y, T89I, E97D, P99T, Y100F, T101P, V108L
notes: Murine monoclonal antibody from hybridoma; also called 5H23-Alexa647 (labelled form)

The binders below were run against T1, human beta klotho protein (soluble, …) (assay: Biacore SPR, antibody captured on anti-mouse Fc, KLB as analyte (1.56-25 nM), 25 C).
Method: Binding affinity measurements were also made in additional Biacore based assays. For example, equilibrium dissociation constant (KD) measurements were carried out with purified antibodies to evaluate their binding to human beta klotho and cyno beta klotho. As mentioned above, anti-mouse Fc antibody (Sigma-Aldrich, St. Louis, Mo.) was immobilized on all four flow cells of a CM5 chip using amine coupling reagents (GE Healthcare LifeSciences, Piscataway, N.J.). Purified antibodies were captured (˜100 RUs) on flow cells 2, 3 and 4 using flow cell 1 as a reference. This was followed by injection of different concentrations of human or cyno beta klotho (1.56 nM to 25 nM, two-fold dilutions in PBS-P buffer) at a flow rate of 70 μL/min and the binding kinetics were evaluated at 25° C.

Kd [nM]	Binder
1.7	B1
1.14	B2
1.2	B3
0.26	B4
0.22	B5
1.25	B6
3.3	B7
0.89	B8

These binders were tested against T2, human beta klotho expressed on cells (assay: FACS competition on HuKLB-overexpressing cells; row antibody unlabelled; competitor 5H23-Alexa647 (labelled, EC10); MFI of the label).
Method: For example, for competition binding assays by FACS analysis, antibody standards were prepared that were conjugated to a fluorochrome using either A488 or A647 antibody labeling kit (Invitrogen) following manufacturer's instructions. A dose titration of the conjugated antibody standard was evaluated using HuKLB overexpressing cells. The plateau of the maximal signal of antibody binding is EC=100 and the background signal is EC=0. Competition by FACS against the fluorochrome labeled antibody was performed by pre-incubating HuKLB overexpressing cells with hybridoma supernatants for 15 minutes at room temperature. Without washing, an EC=10 concentration of A488 or A647 labelled antibody standard was added. EC=10 for an individual antibody was determined by 10% of signal using the maximum signal as (100%) and background signal as (0%). After 30 minutes at 4° C., cells are washed and analyzed by FACS. […] A partial competing antibody is one sample that show signal between labelled antibody alone and background. Antibodies that show complete competition against the same standard antibody are considered to be in the same bin.
Representative results are shown in Table 12 below reported as mean fluorescence intensity (MFI).

Mean Florescence Intensity (MFI)	Binder
2.3	B1
2.3	B9
4.2	B2
2.4	B3
2.4	B4
3.1	B5
2.5	B6
2.4	B7
2.4	B8

Each binder was assayed against T3, human beta klotho / human FGFR1c receptor complex on cells (human, UniProt Q86Z14 1-1044; P11362 22-822) (assay: cell-based or functional assay).
Target sequence in this assay (P11362 22-822 limits assumed, one chain of several): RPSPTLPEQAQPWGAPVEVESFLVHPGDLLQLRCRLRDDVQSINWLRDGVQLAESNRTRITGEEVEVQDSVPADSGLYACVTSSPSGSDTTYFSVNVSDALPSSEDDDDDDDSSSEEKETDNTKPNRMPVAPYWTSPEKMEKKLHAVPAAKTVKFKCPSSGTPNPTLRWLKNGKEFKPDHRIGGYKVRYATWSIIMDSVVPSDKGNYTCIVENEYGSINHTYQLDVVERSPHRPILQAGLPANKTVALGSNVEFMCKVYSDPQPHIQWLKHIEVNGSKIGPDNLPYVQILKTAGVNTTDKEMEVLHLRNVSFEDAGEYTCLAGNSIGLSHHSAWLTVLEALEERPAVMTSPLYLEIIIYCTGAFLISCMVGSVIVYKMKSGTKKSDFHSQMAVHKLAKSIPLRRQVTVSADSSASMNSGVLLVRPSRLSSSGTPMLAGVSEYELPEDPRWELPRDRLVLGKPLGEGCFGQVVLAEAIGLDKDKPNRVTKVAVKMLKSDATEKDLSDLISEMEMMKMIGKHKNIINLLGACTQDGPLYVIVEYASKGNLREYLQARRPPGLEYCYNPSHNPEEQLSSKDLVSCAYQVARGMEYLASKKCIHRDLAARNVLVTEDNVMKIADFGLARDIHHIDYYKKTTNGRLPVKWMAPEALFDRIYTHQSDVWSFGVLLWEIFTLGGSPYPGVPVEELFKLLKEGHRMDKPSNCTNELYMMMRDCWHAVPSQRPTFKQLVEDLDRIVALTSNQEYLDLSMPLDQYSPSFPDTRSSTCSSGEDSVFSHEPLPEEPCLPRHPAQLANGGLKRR

L6 huKLB/R1c reporter assay EC50 [nM]	Binder
0.28	B9
0.39	B4
4.65	B5

Biological target: T3, human beta klotho / human FGFR1c …
Assay: cell-based or functional assay
Remark: another data set of the same source

HEK293 huKLB/R1c reporter assay EC50, Experiment - A [nM]	HEK293 huKLB/R1c reporter assay EC50, Experiment - B [nM]	Binder
0.102	0.0342	B9
0.773	–	B2
0.6	0.0783	B4
0.373	–	B5
0.62	–	B6
0.527	–	B7
